Measured values as given in patent US20050287148A1.

Tests used:
the best Ab2 = experiment: unlabeled 14G2a competing with plate-bound 14G2a for 125I-labeled Ab2
[1] = target: monoclonal anti-GD2 antibody 14G2a; experiment: competition RIA, Ab2 mixed with 125I-14G2a, M21/P6 cell monolayer
[2] = target: monoclonal anti-GD2 antibody 14G2a; experiment: competition assay, Ab2 against 14G2a binding to GD2-expressing M21/P6 cells
[3] = target: monoclonal anti-GD2 antibody 14G2a; experiment: competition RIA, 5 µl Ab2 hybridoma culture supernatant, 125I-14G2a on GD2-positive M21/P6 cells

Row | Molecule | % inhibition (the best Ab2) [%] | lowest amount that inhibits 14G2a binding to GD2 expressing cells [1] [ng] | % inhibition of binding of 14G2a to M21/P6 cells [2] [%] | % inhibition of binding of radiolabeled 14G2a to M21/P6 cells [3] [%]
1 | monoclonal anti-GD2 antibody 14G2a | > 90 |  |  | 
2 | monoclonal anti-idiotype antibody 1A7 (antibody, V domains shown) VH: QVQVKESGPFLVPPSQSLSITCTVSGFSLTTYGVSWIRQPPGKGLEWLGAIWGDGTTNYHSALISRLSISKDNSKSQVFLKLNSLQTDDTATYYCAKLGNYDALDYWGQGTSVTVSS VL: DVFMTQTPLSLPVSLGDQASISCRSSQSIVHSNGNTYLEWYLQKPGQSPNLLIYFVSNRFSGVPDRFSGSGSGTDFTLKISRVEAEDLGVYYCFQGSHVPWTFGGGTKLEIKR |  | 25 | > 75 | > 70
